Reference: the RNAGym collection of RNA variant scans (doi:10.1073/pnas.2313332121)

B1: TPR t1 (parent)
chain: GACCAAUCUGCCCUCAGAGCUCGAGAACAUCUUCGGAUGCAGAGGAGGCAGGCUUCGGUGGCGCGAUAGCGCCAACGUCCUCAACCUCCAAUGCAUCCCACCACAUGAUGAUGCCUGAAGAGCCUUGGUUUUUUG

Variants of: B1
Assay: polymerase ribozyme fitness, log enrichment relative to wild type (log ratio); higher = more active; in vitro selection for triplet polymerase activity
Summary of the method: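 For each subunit of a heterodimeric triplet polymerase ribozyme, a mutant library was built by PCR and transcribed, then taken through a single in vitro selection round in triplicate. Selection involved annealing to a biotinylated primer, the partner subunit and triplets, incubation frozen at −7 °C, gel excision of extended constructs, capture on streptavidin beads and RT-PCR. Genotypes were retained after Illumina sequencing of inputs and outputs only with ≥10 input reads and ≥1 read in each output. Fitness is defined as the logarithm of a genotype's enrichment relative to wild-type enrichment, using inverse-variance-weighted averages across replicates, with the logarithm taken to base 2.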

Variant | polymerase ribozyme fitness (log ratio)
GACCAAUCUGCCCUCAGAGCUCGAGAACAUCUUCGGAUGCAUAGGAGGCAGGCUUCGGUGGCGCGAUAGCGCCAACGUCCUCAACCUCCAAUGCGUCCCACCACAUGAUGAUGCCUGAAGAGCCUUGGUUUUUUG [G42U A95G] | -0.388
GACCAAUCUGCCCUCAGAGCUCGAGAACAUCUUCGGAUGCACAGGAGGCAGGCUUCGAUGGCGCGAUAGCGCCAACGUCCUCAACCUCCAAUGCAUCCCACCACAUGAUGAUGCCUGAAUAGCCUUGGUUUUUUG [G42C G58A G120U] | -1.82
GACCAAUCUGCCCUCAGAGCUCGAGAACAUCUUCGGAUGCAUCGGAGGCAGGCUUCGGUAGCGCGAUAGCGCCAACGUCCUCAACCUCAAAUGCAUCCCACCACAUGAUGAUGCCUGAAGAGCCUUGGUUUUUUG [G42U A43C G60A C89A] | -2.03
GACCAAUCUGCCCUCAGAGCUCGAGAACAUCUUCGGAUGCAUAGGAGGCAGGCUUUGGUGGCGCGAUAGCGUCAACGUCCUCAAGCUCCAAUGCAUCCCACCACAUGAUUAUGCCUGAAGAGCCUUGGUUUUUUG [G42U C56U C72U C85G G110U] | -5.53
GACCAAUCUGCCCUCAGAGCUCGAGAACAUCUUCGGAUGCACAGGAGGCAGGCUUCGGUGGCGCGAUAGCGCCAACGUCCUCAACCUCCAAUGCAUCCCACCACAUGAUGGUGCCUGAAGCGCCUUGGUUUUUUG [G42C A111G A121C] | -1.57
GACCAAUCUGCCCUCAGAGCUCGAGAACAUCUUCGGAUGCACAGGAGACAGGCUUCGGUGGCGCGAUAGCGGCAACGUCCUCAACCUCCAAUGCAUCCCACCACAUGAUGAUGCCUGAAAAGCCUUGGUUUUUUG [G42C G48A C72G G120A] | -1.67
GACCAAUCUGCCCUCAGAGCUCGAGAACAUCUUCGGAUGCACCGGAGGCAGGCUUCGGUGGCGCGAUAGCACCAACGUCCACAACCUCCAAUGCAUCCCACCACAUGAUGAUGCCUGAAUAGCCUUGGUUUUUUG [G42C A43C G71A U81A G120U] | -6.28
GACCAAUCUGCCCUCAGAGCUCGAGAACAUCUUCGGAUGCACAGGAGGCAGGCUUCGGUGGCGCGAUACCGCCAACGUCCUCAACAUCCAAUGCAUCCCACCACAUGAUGAUGCCUCAAGAGCCUUGGUUUUUUG [G42C G69C C86A G117C] | -6.61
GACCAAUCUGCCCUCAGAGCUCGAGAACAUCUUCGGAUGCACACGAGGCAGGCUUUGGUGGCGCGAUAGCGCCAACGUCCUCAACCUCCAAUGCAUCCCACCAUAUGAUGAUGCCUGAAGAGCCUUGGUUUUUUG [G42C G44C C56U C104U] | -0.811
GACCAAUCUGCCCUCAGAGCUCGAGAACAUCUUCGGAUGCACAGGAGGCAGGCUUCGGUGGCGCGAUAGCGCCAACGUCCUCAACCUCCAAUGCAUCCCACCACAUGAUGAUGCCUGAAGAGCCUUUGUUUUUUG [G42C G127U] | -2.05
GACCAAUCUGCCCUCAGAGCUCGAGAACAUCUUCGGAUGCACAGGAGGCAGGCUUCGGUGGCGCGAUAGCGCCAACGUCCUCAACCUCCAAUACAUUCCACCACAUGAUGAUGCUUGAAGAGCCUUGGUUUUUUG [G42C G93A C97U C115U] | -5.15
GACCAAUCUGCCCUCAGAGCUCGAGAACAUCUUCGGAUGCAUAGGAGGCAGGAUUCGGUGGCGCGAUAGCGCCAACGUCCUCACCUUCCUAUGCAUCCCACCACAUGAUGAUGCCUGAAGAGCCUUGGUUGCUUG [G42U C53A A84C C86U A90U U131G U132C] | -1.34
GACCAAUCUGCCCUCAGAGCUCGAGAACAUCUUCGGAUGCACAGGAGGCAGGCUUCGGUCGCGCGAUAGCGCCAACCACCUCAACCUCCAAUGCAUCCCACCACAUGAUGAUGCCUGAAGAGCCUUGGUGUUUUC [G42C G60C G77C U78A U130G G135C] | -3.55
GACCAAUCUGCCCUCAGAGCUCGAGAACAUCUUCGGAUGCACAGGAGGCAGACUUCGGUUGCGCGAUAGCGCCAACGUCCUCAACCUCCAAUGCAUCCCAUCAAAUGAUGAUGCCUGAAGAGCCUUGGUUUUUUG [G42C G52A G60U C101U C104A] | -5.59
GACCAAUCUGCCCUCAGAGCUCGAGAACAUCUUCGGAUGCACAGGUGGCAGGCUUCGGUCGCGCGAUAGCGCCAACGUCCUCAACCUCCAAUGCAUCCCACCACAUGAUGAUGCCUGAAGAGCCUUGGUUUUUUG [G42C A46U G60C] | -2.77
GACCAAUCUGCCCUCAGAGCUCGAGAACAUCUUCGGAUGCAUAGGAGGCAGGUUUCGGUGGUGCGAUAGCGCCAACGUCCUCAACCUCCAAUGCAUCCCACCACAUGAUAAUGCCUGAAGAGCCUUGGUUUUUUG [G42U C53U C62U G110A] | -3.9
GACCAAUCUGCCCUCAGAGCUCGAGAACAUCUUCGGAUGCACAGGAGGCAGGCUUCGGUGUCGCGAUAGCGCCAACGUCCUCAACCUCCAAUGCAUCCCACCACAUGAUGAUGCCUGAAGAGCCUUGGUUUUUUG [G42C G61U] | -1.04
GACCAAUCUGCCCUCAGAGCUCGAGAACAUCUUCGGAUGCACAGGAGGCAGGCUUCAGUGGCGCGAUAGCGCCAACGUCCUCAACCUCCAAUGCAUCCCACCACUUGAUGAUGCCUGAAGAGCCUUGGUUUUUUG [G42C G57A A105U] | -5.05
GACCAAUCUGCCCUCAGAGCUCGAGAACAUCUUCGGAUGCACAGGAGGCAGGCUUCGGUGGCGCGAUAGCGCCAACUUCCUCAACCUCCAAUGCAUCCCACCACAUGAUGAUGCCUGAAGAGCCUUGGUUUUUUG [G42C G77U] | -1.59
GACCAAUCUGCCCUCAGAGCUCGAGAACAUCUUCGGAUGCACAGGAGGCAGGCUUCGGUGGCGCGAUAGCGCCAACGUCCUCAACCUCCAAUGCAUCCCACCACAUGAUGAAGCCUGAAGAGCCUUGGUUUUUUG [G42C U112A] | -0.562
GACCAAUCUGCCCUCAGAGCUCGAGAACAUCUUCGGAUGCACAGGAGGCAGGCUUCGGUGGCGCGAUAGCUCCAACGUCCUCAACCUCCAAUGCAUCCCACCACAUGAUGAUGCCUGAAGAGCCUUGGUUUUUUG [G42C G71U] | -2.39
